According to patent US20140179898A1:

Target: IgG1-type humanized monoclonal antibody
Experiment: stepwise pH affinity chromatography (bound at pH 7.0, elution buffer pH 4.0), bought column

## HiTrap rProtein A FF (GE Healthcare) (from UniProt P38507 37-327)
  pH of the antibody's elution peak: 3.7 pH
